According to article PMC2810746 (Cell host & microbe, 2009):

Target: the molecule itself
Assay: immunoblotting of unboiled samples

B1: adenovirus penton base, recombinant, expressed in COS-7 cells (natural protein)
chain: MRRAAMYEEGPPPSYESVVSAAPVAAALGSPFDAPLDPPFVPPRYLRPTGGRNSIRYSELAPLFDTTRVYLVDNKSTDVASLNYQNDHSNFLTTVIQNNDYSPGEASTQTINLDDRSHWGGDLKTILHTNMPNVNEFMFTNKFKARVMVSRLPTKDNQVELKYEWVEFTLPEGNYSETMTIDLMNNAIVEHYLKVGRQNGVLESDIGVKFDTRNFRLGFDPVTGLVMPGVYTNEAFHPDIILLPGCGVDFTHSRLSNLLGIRKRQPFQEGFRITYDDLEGGNIPALLDVDAYQASLKDDTEQGGGGAGGSNSSGSGAEENSNAAAAAMQPVEDMNDHAIRGDTFATRAEEKRAEAEAAAEAAAPAAQPEVEKPQKKPVIKPLTEDSKKRSYNLISNDSTFTQYRSWYLAYNYGDPQTGIRSWTLLCTPDVTCGSEQVYWSLPDMMQDPVTFRSTRQISNFPVVGAELLPVHSKSFYNDQAVYSQLIRQFTSLTHVFNRFPENQILARPPAPTITTVSENVPALTDHGTLPLRNSIGGVQRVTITDARRRTCPYVYKALGIVSPRVLSSRTF
stoichiometry N: 5
